According to the supplement of paper PMC10567573:

B1: NETO1 (parent)
chain: GFSPIIGRFCGQQNPPVIKSSGRF
B2: TRAF3IP2 (parent)
chain: APWNYHYHCPGSPDHQVPYGHDYP

Variants of: B1
Assay: protein stability index of a GFP-peptide fusion (GPS, HEK-293T) (PSI 1-6); higher = more stable
Conditions: c terminus: a fixed tail appended
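Further: lentivirally expressed fusions sorted by FACS into six bins by GFP to DsRed ratio, PSI derived from sequencing read proportions per bin multiplied by bin number.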

Protein stability index of substitutions, site by site:
G1: K 2.18 | V 1.93 | E 1.7 | H 1.66 | R 1.98 | M 1.98 | N 1.85 | Y 1.93 | L 2.27 | S 2.04 | T 1.8 | W 2.02 | Q 2.03 | C 1.6 | A 2.17 | I 2 | F 1.86 | P 2.25 | D 1.6
I5: G 2.31 | H 2.59 | K 2.75 | F 1.79 | A 2.05 | C 2.12 | D 2.92 | E 3.22
P4: R 1.82 | G 1.74 | Y 2.44 | A 2.12 | M 2.36 | K 2.59 | N 1.69 | V 1.87 | D 1.57 | S 1.99 | W 1.91 | C 1.88 | Q 1.91 | F 2.09 | T 1.26 | E 2.33 | H 2.05
S3: A 2.6 | Q 2.49 | H 2.03 | P 1.75 | T 2.4 | E 2.78 | F 2.56 | L 1.68 | C 1.22 | K 2.47 | V 2.03 | I 1.71 | W 1.75 | R 2.04 | N 2.08 | D 2.41 | M 1.84 | G 2.2 | Y 1.53
F2: T 2.46 | Q 2.91 | G 2.54 | P 2.5 | A 2.35 | R 2.16 | D 2.68 | S 2.75 | N 2.78 | W 1.52 | E 3.09 | C 2.73 | K 2.28 | V 2.13 | M 2 | L 2.55 | H 2.15 | Y 2.02 | I 2.25

Variants of: B2
Assay: as above
Conditions: c terminus: a fixed tail appended

Protein stability index, by site and new letter:
H21: R 2.4 | L 1.52 | T 2.03 | C 1.6 | D 2.79 | F 1.56 | A 2.22 | V 1.54 | G 1.91 | W 2.69 | E 2.55 | S 2.05 | I 1.74 | P 2.48 | Y 2.35 | N 2.39 | Q 2.17 | M 1.67 | K 2.48
G20: N 2.44 | A 2.58 | H 2.35 | E 2.48 | W 1.4 | Q 2.19 | D 2.95 | I 2.74 | K 2.65 | T 2.66 | Y 2.15 | M 1.93 | F 1.52 | P 2.26 | R 2.45 | C 2.42 | V 2.13 | S 2.28 | L 1.74
Y23: R 2.9 | D 3.83 | V 1.97 | K 3.12 | M 2.25 | L 2.27 | T 2.89 | H 1.88 | N 2.08 | Q 2.92 | S 2.85 | P 3.06 | W 1.68 | C 1.91 | I 2.3 | F 2 | A 2.85 | G 2.92 | E 3.61
D14: C 2.49 | R 1.91 | H 2.25 | S 2.26 | T 1.78 | N 2.11 | G 2.1 | E 2.72 | K 2 | L 2.6 | I 2.08 | V 2.09 | Q 2.46 | W 2.32 | F 2.75 | Y 1.53 | A 1.93 | M 1.84
Q16: I 2.58 | T 2.31 | C 2.07 | A 2.64 | D 2.49 | W 1.68 | H 2.97 | S 3.2 | V 2.09 | G 1.81 | Y 2.09 | N 2.54 | R 2.02 | P 2 | F 2.19 | M 1.94 | E 2.6 | K 2.15 | L 1.89
G11: P 1.91 | W 2.18 | V 2.08 | T 2.18 | R 2.04 | S 2.12 | N 1.87 | Y 1.37 | Q 1.63
P24: Y 1.86 | E 4.07 | F 2.01 | W 1.94 | N 2.93 | D 3.88 | S 2.21 | A 2.51 | Q 2.28 | V 1.96 | L 1.96 | R 2.73 | H 3.02 | C 2.02 | T 2.63 | G 1.62 | M 1.66 | K 2.8 | I 1.72
P13: C 1.94 | T 2.24 | F 2.78 | K 1.84 | I 1.87 | G 2.05 | Y 1.63 | W 1.67 | R 2.33 | Q 2.5 | S 2.14 | M 2.12 | E 3.05 | L 2.16 | A 3.02 | H 1.79 | D 2.4 | N 1.83
D22: C 1.41 | Q 2.16 | Y 2.08 | V 1.6 | M 1.95 | E 2.36 | G 2.41 | I 1.16 | S 2.33 | R 2.18 | L 1.9 | F 1.55 | A 1.72 | N 1.36 | P 2.68 | W 2.16 | T 2.42 | K 2.73
Y19: T 2.85 | E 2.8 | P 2.51 | I 2.66 | G 2.41 | K 2.51 | N 2.48 | M 2.23 | Q 3.09 | W 1.82 | C 1.91 | A 2.47 | H 2.85 | R 1.99 | S 2.44 | D 2.75 | F 1.87 | V 2.7 | L 2.46
P18: M 2.56 | T 2.37 | E 2.54 | N 2.5 | D 2.44 | V 2.05 | K 3.59 | R 2 | Y 2.16 | I 1.93 | L 2.21 | Q 2.54 | F 2.23 | C 2.97 | H 2.17 | S 1.67 | G 1.92 | A 3.19 | W 1.71
S12: K 2.21 | Y 2.21 | F 1.7 | R 2.47 | D 2.49 | M 1.96 | N 1.6 | V 2.2 | Q 2.5 | I 2.27 | C 2.75 | G 2.36 | T 2.35 | H 2.23 | E 2.37 | A 2.07 | L 2.47 | W 2
V17: Q 2.61 | S 2.31 | F 1.73 | T 2.39 | R 2.4 | E 2.95 | W 2.08 | Y 1.81 | K 2.53 | I 2.15 | H 2.71 | C 2.45 | G 2.68 | L 2.81 | P 2.6 | N 2.23 | M 1.88 | D 2.62 | A 2.06
H15: C 1.97 | F 1.65 | E 2.43 | G 2.73 | A 2.1 | K 2.65 | M 2.02 | L 1.95 | N 2.48 | Q 2.13 | T 1.91 | R 2.1 | Y 2.14 | P 2.23 | S 2.22 | D 2.56 | W 1.46 | I 2.61 | V 2.31
